{"source": "paper PMC6144819", "about": "(Nucleic Acids Research, 2018)", "binders": {"B1": {"name": "Drosophila Translin (natural protein, UniProt Q7JVK6 1-235, looked up)", "chain": "MSNFVNLDIFSNYQKYIDNEQEVRENIRIVVREIEHLSKEAQIKLQIIHSDLSQISAACGLARKQVELCAQKYQKLAELVPAGQYYRYSDHWTFITQRLIFIIALVIYLEAGFLVTRETVAEMLGLKISQSEGFHLDVEDYLLGILQLASELSRFATNSVTMGDYERPLNISHFIGDLNTGFRLLNLKNDGLRKRFDALKYDVKKIEEVVYDVSIRGLSSKEKDQQEEPAVPATE"}}, "target": "T1, Drosophila SUMO-TRAX (WT) (Drosophila, UniProt Q9VF77 1-298)", "T1 sequence (looked up)": "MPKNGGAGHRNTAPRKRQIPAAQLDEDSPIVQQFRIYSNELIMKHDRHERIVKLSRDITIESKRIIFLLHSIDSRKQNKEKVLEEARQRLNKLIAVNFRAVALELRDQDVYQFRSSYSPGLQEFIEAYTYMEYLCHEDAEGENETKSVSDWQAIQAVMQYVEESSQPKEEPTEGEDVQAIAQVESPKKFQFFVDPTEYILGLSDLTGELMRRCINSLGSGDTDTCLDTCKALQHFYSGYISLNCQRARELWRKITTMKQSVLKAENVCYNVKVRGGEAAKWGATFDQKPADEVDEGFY", "test": "cryo-EM structure", "data": [{"binder": "B1", "values": [{"measurement": "stoichiometry N", "result": "1 TRAX per Translin (4:4)"}]}]}
